This passage reports stoichiometry N results from paper PMC4549274.

What all share (experiment): native MS; nano-ESI native MS, 15 μM monomer, buffer-exchanged into 100 mM ammonium acetate pH 8.5, positive ion mode
Assay [1] has as its target CrRbcX-IIa(33–189) (Chlamydomonas reinhardtii).
Assay [2] has as its target CrRbcX-IIa(34–156) (Chlamydomonas reinhardtii).
Assay [3] addresses CrRbcX-IIa(34–189) (Chlamydomonas reinhardtii).

CrRbcX-IIa(33–189) (natural protein) yielded a stoichiometry N in assay [1] of 2. In assay [2], CrRbcX-IIa(34–156) (domain or fragment) gave a stoichiometry N of 4. CrRbcX-IIa(34–189) (domain or fragment) gave a stoichiometry N in assay [3] of 4.

By stoichiometry N is commonly meant the number of molecules, sites or subunits per partner or assembly.
